The source of these data is US20210032352A1 (ANTERA THERAPEUTICS, published 2021).

What is called Kd is the concentration at which binding is half-saturated. Low readings indicate higher affinity, high ones lower affinity.

For one assay, the target named is T1, FZD10 CRD, Fc-tagged (human, UniProt Q9ULW2 21-161).
T1 construct: domain: CRD; Bought; not shown: Fc tag of the purchased fusion
T1 sequence (looked up): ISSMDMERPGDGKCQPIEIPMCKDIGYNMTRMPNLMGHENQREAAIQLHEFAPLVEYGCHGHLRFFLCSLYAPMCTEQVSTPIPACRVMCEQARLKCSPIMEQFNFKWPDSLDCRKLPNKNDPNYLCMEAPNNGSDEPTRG
As to the kind of experiment: kinetic table (called BLI in paragraph 35).

Assay [1] addresses LRP6 on HEK293/HEK293T reporter cells (UniProt O75581 20-1613, limits assumed). The assay is described as follows: cell-based or functional assay.
Assay [2] has as its target T2, human LRP6 ECD, Fc-tagged (human, UniProt O75581 20-1370).
T2 construct: extracellular domain; Bought; also called LRP co-receptor; not shown: Fc tag of the purchased fusion
T2 sequence (looked up): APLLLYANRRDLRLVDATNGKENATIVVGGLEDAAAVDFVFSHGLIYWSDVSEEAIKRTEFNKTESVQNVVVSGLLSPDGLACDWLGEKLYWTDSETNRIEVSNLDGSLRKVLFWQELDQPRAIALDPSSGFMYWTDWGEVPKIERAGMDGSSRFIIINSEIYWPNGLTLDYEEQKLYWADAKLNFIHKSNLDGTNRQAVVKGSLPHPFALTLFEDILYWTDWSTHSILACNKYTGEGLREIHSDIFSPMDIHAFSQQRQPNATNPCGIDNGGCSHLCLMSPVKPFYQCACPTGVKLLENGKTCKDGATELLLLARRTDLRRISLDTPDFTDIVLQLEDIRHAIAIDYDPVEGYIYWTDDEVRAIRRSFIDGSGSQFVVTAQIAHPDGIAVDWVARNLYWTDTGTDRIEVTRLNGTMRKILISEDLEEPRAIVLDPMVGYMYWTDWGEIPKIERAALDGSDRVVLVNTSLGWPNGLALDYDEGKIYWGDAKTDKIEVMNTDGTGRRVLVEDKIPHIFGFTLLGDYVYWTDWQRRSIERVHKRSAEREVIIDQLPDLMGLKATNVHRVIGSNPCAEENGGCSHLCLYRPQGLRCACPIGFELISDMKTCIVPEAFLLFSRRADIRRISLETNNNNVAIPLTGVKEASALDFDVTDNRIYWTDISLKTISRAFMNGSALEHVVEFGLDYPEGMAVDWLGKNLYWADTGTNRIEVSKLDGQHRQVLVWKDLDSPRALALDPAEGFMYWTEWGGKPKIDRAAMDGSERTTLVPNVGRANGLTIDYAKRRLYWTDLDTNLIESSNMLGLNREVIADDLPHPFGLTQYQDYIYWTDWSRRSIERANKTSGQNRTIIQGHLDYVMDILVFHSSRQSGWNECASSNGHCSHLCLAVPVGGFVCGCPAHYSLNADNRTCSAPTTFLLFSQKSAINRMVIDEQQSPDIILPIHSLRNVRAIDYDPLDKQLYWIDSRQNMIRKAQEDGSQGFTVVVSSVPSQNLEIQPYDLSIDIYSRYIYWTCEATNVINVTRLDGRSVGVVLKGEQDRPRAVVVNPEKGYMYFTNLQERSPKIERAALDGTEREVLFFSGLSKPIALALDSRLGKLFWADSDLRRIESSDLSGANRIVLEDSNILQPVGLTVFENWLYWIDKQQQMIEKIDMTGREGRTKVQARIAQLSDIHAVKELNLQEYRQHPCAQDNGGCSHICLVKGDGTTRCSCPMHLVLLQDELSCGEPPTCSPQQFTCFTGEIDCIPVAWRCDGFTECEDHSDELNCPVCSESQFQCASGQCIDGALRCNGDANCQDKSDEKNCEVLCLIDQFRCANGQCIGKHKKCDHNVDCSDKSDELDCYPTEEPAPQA
The assay is described as follows: BLI kinetics, human LRP6 ECD. (BLI is a label-free optical method that tracks binding on a fibre tip over time.)

The target of a further assay is T3, C1q (UniProt P02745 23-245; P02746 28-253; P02747 29-245).
T3 construct: also called complement (C1q); Clq
T3 sequence (P02745 23-245 limits assumed, chain 1 of 3): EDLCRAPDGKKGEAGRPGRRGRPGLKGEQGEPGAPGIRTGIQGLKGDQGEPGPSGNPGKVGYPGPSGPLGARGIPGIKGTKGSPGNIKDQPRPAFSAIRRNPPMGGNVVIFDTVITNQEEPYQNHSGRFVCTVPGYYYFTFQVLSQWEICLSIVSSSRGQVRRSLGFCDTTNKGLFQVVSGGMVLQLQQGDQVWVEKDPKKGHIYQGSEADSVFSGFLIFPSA
T3 sequence (P02746 28-253 limits assumed, chain 2 of 3): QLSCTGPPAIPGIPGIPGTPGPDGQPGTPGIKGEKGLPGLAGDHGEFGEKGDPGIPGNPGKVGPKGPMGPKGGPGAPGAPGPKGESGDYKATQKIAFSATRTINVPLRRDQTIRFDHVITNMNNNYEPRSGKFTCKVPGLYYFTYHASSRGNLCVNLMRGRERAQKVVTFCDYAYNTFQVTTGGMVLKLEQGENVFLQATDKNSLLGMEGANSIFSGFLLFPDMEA
T3 sequence (P02747 29-245 limits assumed, chain 3 of 3): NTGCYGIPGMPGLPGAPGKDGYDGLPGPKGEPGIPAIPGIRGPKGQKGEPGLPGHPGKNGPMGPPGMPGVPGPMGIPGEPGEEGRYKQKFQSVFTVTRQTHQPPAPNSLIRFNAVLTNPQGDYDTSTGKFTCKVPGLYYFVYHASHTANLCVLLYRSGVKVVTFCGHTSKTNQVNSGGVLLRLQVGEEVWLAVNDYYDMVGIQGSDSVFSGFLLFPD
The assay is described as follows: BLI end point: IgG1, FLAg or Fab immobilised on the sensor, receptor in solution (300 nM; CD64 50 nM), signal normalised to the isotype control.

The target of the next assay is T4, CD64 (UniProt P12314 16-288).
T4 construct: also called monocyte and macrophage marker CD64
T4 sequence (P12314 16-288 limits assumed): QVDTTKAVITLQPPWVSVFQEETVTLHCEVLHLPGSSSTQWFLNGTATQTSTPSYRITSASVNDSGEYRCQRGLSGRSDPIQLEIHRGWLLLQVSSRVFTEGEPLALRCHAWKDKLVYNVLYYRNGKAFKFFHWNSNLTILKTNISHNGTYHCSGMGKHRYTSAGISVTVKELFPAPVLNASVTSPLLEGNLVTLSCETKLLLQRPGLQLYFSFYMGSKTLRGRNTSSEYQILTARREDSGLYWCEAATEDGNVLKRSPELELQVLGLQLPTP
Described as above.

A further assay addresses T5, FZD2 CRD, Fc-tagged (human, UniProt Q14332 24-190).
T5 construct: domain: CRD; Bought; not shown: Fc tag of the purchased fusion
As to the kind of experiment: kinetic table (called BLI in paragraph 35); quantity name and unit not printed in the table: KD in M follows from FIG. 12A, same values in nM.

A further assay has as its target FZD7 CRD, Fc-tagged (human, UniProt O75084 33-185). The description is as above.
The next assay has as its target T6, FZD1 CRD, Fc-tagged (human, UniProt Q9UP38 70-250).
T6 construct: domain: CRD; Bought; not shown: Fc tag of the purchased fusion
The description is as above.

T6 sequence (Q9UP38 70-250): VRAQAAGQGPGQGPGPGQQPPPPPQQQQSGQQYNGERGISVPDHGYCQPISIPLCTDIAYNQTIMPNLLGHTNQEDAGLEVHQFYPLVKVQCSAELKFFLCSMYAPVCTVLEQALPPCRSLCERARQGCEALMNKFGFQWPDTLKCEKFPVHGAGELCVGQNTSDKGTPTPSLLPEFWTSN
Protocol for C1q: Coated sensors were equilibrated in assay buffer (PBS, 1% BSA, 0.05% Tween20) and transferred into Fc receptor solutions. Association was monitored for 600 seconds, the sensors were transferred to assay buffer, and dissociation was monitored for 600 seconds. CD64 and all other Fc receptors were assayed at 50 nM or 300 nM, respectively, at pH 7.4, unless as indicated. Shake speed was 1000 rpm and temperature was 25° C. End-point response values were taken at the end of the association phase and were normalized to isotype controls. […] The association and disassociation times were 600 or 1200 seconds, respectively.

B1: F^P+P-L6^1+3 (5019-K/H-2539-2542) (bispecific antibody)
chain 1: EVQLVESGGGLVQPGGSLRLSCAASGFNIGSSSIHWVRQAPGKGLEWVASIYSAFASTSYADSVKGRFTISADTSKNTAYLQMNSLRAEDTAVYYCARYHFPFGFALDYWGQGTLVTVSSGGGGSDIQMTQSPSSLSASVGDRVTITCRASQSVSSAVAWYQQKPGKAPKLLIYSASSLYSGVPSRFSGSRSGTDFTLTISSLQPEDFATYYCQQGVYLFTFGQGTKVEIKLEDKTHTKVEPKTSDKTHTCPPCPAPELLGGPSVFLFPPKPKDTLMISRTPEVTCVVVDVSHEDPEVKFNWYVDGVEVHNAKTKPREEQYNSTYRVVSVLTVLHQDWLNGKEYKCKVSNKALPAPIEKTISKAKGQPREPMVFDLPPSREEMTKNQVSLWCMVKGFYPSDIAVEWESNGQPENNYKTTPPVLDSDGSFFLYSKLTVDKSRWQQGNVFSCSVMHEALHNHYTQKSLSLSPGKSGSETPGTSESATPESGGGEVQLVESGGGLVQPGGSLRLSCAASGFNISYSSIHWVRQAPGKGLEWVAYISSYYGYTYYADSVKGRFTISADTSKNTAYLQMNSLRAEDTAVYYCARAHYFPWAGAMDYWGQGTLVTVSSGGGGSDIQMTQSPSSLSASVGDRVTITCRASQSVSSAVAWYQQKPGKAPKLLIYSASSLYSGVPSRFSGSRSGTDFTLTISSLQPEDFATYYCQQYYWPITFGQGTKVEIK
chain 2: EVQLVESGGGLVQPGGSLRLSCAASGFNIGSSSIHWVRQAPGKGLEWVASIYSAFASTSYADSVKGRFTISADTSKNTAYLQMNSLRAEDTAVYYCARYHFPFGFALDYWGQGTLVTVSSGGGGSDIQMTQSPSSLSASVGDRVTITCRASQSVSSAVAWYQQKPGKAPKLLIYSASSLYSGVPSRFSGSRSGTDFTLTISSLQPEDFATYYCQQGVYLFTFGQGTKVEIKLEDKTHTKVEPKSSDKTHNCPPCPAPELLGGPSVFLFPPKPKDTLMISRTPEVTCVVVDVSHEDPEVKFNWYVDGVEVHNAKTKPREEQYNSTYRVVSVLTVLHQDWLNGKEYKCKVSNKALPAPIEKTISKAKGQPREPQVYTLPPIRELMTSNQVSLSCAVKGFYPSDIAVEWESNGQPENNYKTTPPVLDSDGSFFLVSKLTVDKSRWQQGNVFSCSVMHEALHNHYTQKSLSLSPGKSGSETPGTSESATPESGGGEVQLVESGGGLVQPGGSLRLSCAASGFNISSYYIHWVRQAPGKGLEWVASIYSSYGYTSYADSVKGRFTISADTSKNTAYLQMNSLRAEDTAVYYCARTVRGSKKPYFSGWAMDYWGQGTLVTVSSGGGGSDIQMTQSPSSLSASVGDRVTITCRASQSVSSAVAWYQQKPGKAPKLLIYSASSLYSGVPSRFSGSRSGTDFTLTISSLQPEDFATYYCQQYSWGPFTFGQGTKVEIK
As for B1, the binding result with FZD10 CRD, Fc-tagged is given as “no binding”; with C1q, “binds”; in the assay with CD64, “binds”. Also, the “EC50 of activation of a LEF/TCF reporter gene in HEK293T cells” value in assay [1] was around 5 nM. Further, in assay [1], the “ß-catenin luciferase reporter assay in HEK293 cells, activation over background” value is around 400 fold over background. For the same molecule, the Kd in assay [2] is 12 nM; with FZD2 CRD, Fc-tagged it was 0.039 nM; with FZD7 CRD, Fc-tagged, 0.057 nM; with FZD1 CRD, Fc-tagged it was below 0.01 nM.
